The source of these data is paper PMC6629125, “Lysyl oxidase–like 2 (LOXL2)–mediated cross-linking of tropoelastin” (The FASEB Journal, 2019).

The assay has as its target T1, full-length lysyl oxidase-like 2 (FL-LOXL2), recombinant human (human, UniProt Q9Y4K0 26-774).
T1 construct: Lysyl oxidase-like 2 (LOXL2), human, full-length cDNA in pcDNA3.1-myc-His, amplified from the start ATG; the protein was secreted by CHO cells; also called LOX-like 2; source: DHFR-deficient CHO cells, transfected, secreted into Opti-MEM; purified (HisTrap, gel filtration)
T1 sequence (looked up): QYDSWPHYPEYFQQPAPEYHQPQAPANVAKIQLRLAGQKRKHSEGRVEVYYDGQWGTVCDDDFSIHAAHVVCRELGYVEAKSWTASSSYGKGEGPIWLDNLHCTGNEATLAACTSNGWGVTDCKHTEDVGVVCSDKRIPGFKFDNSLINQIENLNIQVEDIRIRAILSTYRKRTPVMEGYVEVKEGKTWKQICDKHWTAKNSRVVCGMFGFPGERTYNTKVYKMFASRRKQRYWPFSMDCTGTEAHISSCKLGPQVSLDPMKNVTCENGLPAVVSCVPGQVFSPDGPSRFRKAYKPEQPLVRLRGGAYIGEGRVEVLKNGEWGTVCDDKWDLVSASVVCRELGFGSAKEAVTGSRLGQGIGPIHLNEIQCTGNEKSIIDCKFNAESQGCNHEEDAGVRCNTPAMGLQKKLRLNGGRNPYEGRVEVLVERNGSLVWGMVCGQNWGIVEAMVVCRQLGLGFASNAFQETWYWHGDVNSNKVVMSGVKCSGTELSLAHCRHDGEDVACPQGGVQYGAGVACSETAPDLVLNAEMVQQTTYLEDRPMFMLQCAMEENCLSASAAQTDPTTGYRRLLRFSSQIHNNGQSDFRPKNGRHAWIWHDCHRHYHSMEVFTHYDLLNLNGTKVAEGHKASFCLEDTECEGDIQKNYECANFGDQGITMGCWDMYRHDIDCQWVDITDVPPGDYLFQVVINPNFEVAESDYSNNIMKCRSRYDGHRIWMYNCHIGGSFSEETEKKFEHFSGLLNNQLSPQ
Briefly: SPR; ProteOn XPR36; LOXL2 amine-coupled on a GLC chip; TE as analyte, serial 1:1 dilution from 830 nM; 10 mM Na-HEPES, 150 mM NaCl, 2 mM CaCl2, 0.05% Tween 20, pH 7.4, 25°C; steady-state analysis. Conditions: both partners purified.

B1: human tropoelastin, isoform 2 (natural protein, UniProt P15502-2 27-724, looked up)
chain: GGVPGAIPGGVPGGVFYPGAGLGALGGGALGPGGKPLKPVPGGLAGAGLGAGLGAFPAVTFPGALVPGGVADAAAAYKAAKAGAGLGGVPGVGGLGVSAGAVVPQPGAGVKPGKVPGVGLPGVYPGGVLPGARFPGVGVLPGVPTGAGVKPKAPGVGGAFAGIPGVGPFGGPQPGVPLGYPIKAPKLPGGYGLPYTTGKLPYGYGPGGVAGAAGKAGYPTGTGVGPQAAAAAAAKAAAKFGAGAAGVLPGVGGAGVPGVPGAIPGIGGIAGVGTPAAAAAAAAAAKAAKYGAAAGLVPGGPGFGPGVVGVPGAGVPGVGVPGAGIPVVPGAGIPGAAVPGVVSPEAAAKAAAKAAKYGARPGVGVGGIPTYGVGAGGFPGFGVGVGGIPGVAGVPGVGGVPGVGGVPGVGISPEAQAAAAAKAAKYGVGTPAAAAAKAAAKAAQFGLVPGVGVAPGVGVAPGVGVAPGVGLAPGVGVAPGVGVAPGVGVAPGIGPGGVAAAAKSAAKVAAKAQLRAAAGLGAGIPGLGVGVGVPGLGVGAGVPGLGVGAGVPGFGAVPGALAAAKAAKYGAAVPGVLGGLGALGGVGIPGGVVGAGPAAAAAAAKAAAKAAQFGLVGAAGLGGLGVGGLGVPGVGGLGGIPPAAAAKAAKYGAAGLGGVLGGAGQFPLGGVAARPGFGLSPIFPGGACLGKACGRKRK
notes: also called TE; source: E. coli, purified (acetone/buffer extraction, filtration, dialysis, freeze drying)
One may read the Kd as the equilibrium constant for the complex coming apart. In the case of B1, the Kd came to 146 nM.
